Measurements published in the supplement of paper PMC9170038.

System: MS2 coat protein
Assay: apparent KD of MS2 coat protein; designed switch direction (-1 OFF switch, 1 ON switch): -1; higher = weaker reporter binding
Outline: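 Designed RNA switches were transcribed on Illumina chips by stalled E. coli RNA polymerase and titrated with SNAP-549-labelled MS2 coat protein from 0.7 or 1.5 nM, doubling to 3 µM. Step length ran from 0.8–1.5 h at the lowest concentration to 10–20 min at the highest. The apparent KD is the median over clusters for each design, from curve-fitted normalised cluster fluorescence.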

[1] = Eterna round: R95, input ligand: FMN 200 uM
[2] = Eterna round: R95, input ligand: microRNA oligo, concentration not stated
[3] = Eterna round: R95, input ligand: none
[4] = input ligand: microRNA oligo, concentration not stated

Row | Sequence | apparent KD of MS2 coat protein [2] [nM] | apparent KD of MS2 coat protein (input ligand: FMN 200 uM) [nM] | apparent KD of MS2 coat protein (input ligand: none) [nM] | other results
1 | UCUAGCUUUUUGCGUCAAGCAUUGAAGUCUGUUAUCGUUACAUGAGGAUCACCCAUGUUUGUUUUAUGUCGUCUUGA [JR_SV3TOV2_Sub100] (puzzle: Sensor v3, turn-off variant 2) | 15.6 |  |  | apparent KD of MS2 coat protein [1]: 19.3 nM; apparent KD of MS2 coat protein [3]: 22.2 nM
2 | AGAAAUGCCCAUGGCCACAAGCUUCUUGCUUGUCUUACUACAUGAGGAUCACCCAUGUAACAUGGGCUCCUGAUAAU [Maonesra] (puzzle: Sensor v3, turn-off variant 2) | 10.1 |  |  | apparent KD of MS2 coat protein [1]: 11.8 nM; apparent KD of MS2 coat protein [3]: 11.1 nM
3 | ACUUAUUGAGGAUAUACAGAUUAUUACAUGAGGAUCACCCAUGUUCUUCAAUGUAUAUAUGUAGAAGGCAGAAGUA [Mat - Exclusion 5 - JL Mod - D14] (Eterna round: R97, puzzle: Exclusion 5) |  | 317 | 88.9 | 
4 | AGGUAACAUGAGGAUCACCCAUGUCAGGAUAUCAGUAAGAUGAGAAUAGAGUAGAGUAUGAGAAGGGACUAUAU [Excluse me! 21 - Jieux - Exclusion 1] (puzzle: Exclusion 1) | 37.4 |  |  | 
5 | ACGAUGACCGAAAAGUGUCAACUGACAUGAGGAUCACCCAUGUAGGAUAUGGCUACGAAAAGUAGUCAGAAGGACAUGUCAUCA [Omei Exc(NG) 3 Av6] (Eterna round: R96, puzzle: Exclusion NG 3) |  | 17.6 | 15.4 | apparent KD of MS2 coat protein [4]: 10.5 nM
6 | UCUUUCUUUGUGAGGAUAUGCCCAAAUAAAAGCGGGCAGAAGGCACAUGAGGAUCACCCAUGUCCUGCGGUUUU [salish99_bmx4_r4_147] (Eterna round: R97, puzzle: Brourd's mod of Exclusion 4) |  | 174 | 16.5 | 
7 | CCUCAACAGUAGGAUAUCAUCAAACUAUUGUGAUGAGAAGGACUGACAUGAGGAUCACCCAUGUUAACGUGAUG [Mod of Brourd - Jieux - Exclusion 6] (Eterna round: R97, puzzle: Exclusion 6) |  | 176 | 35.8 | 
8 | UAACCUCGCGUCAGGAUAUGCGAGGACUGUGACGUGCAGAAGGGACAUGAGGAUCACCCAUGUGAAAGAAUUAA [Acecequ] (puzzle: Brourd's mod of Exclusion 4) | 20.3 |  |  | 
9 | UUGGUUGGUGUAGGAUAUGUAUGAGGAUCACCCAUUAAUAAAUUUUAACCACGAGGAUCACCCGUGUAGAAGGACAUUGGUUAU [pwkr exNG2 2xF5 1xFMN.22] (Eterna round: R96, puzzle: Exclusion NG 2) |  | 52 | 57.4 | apparent KD of MS2 coat protein [4]: 42.1 nM
10 | GCUUUUGGGCAAGGAUAUCCUGCGCUGUUCUGGUUCGUGUCUGUCACAUGAGGAUCACCCAUGUGGGAGAAGGUGCCUGUGGUG [Design 70] (Eterna round: R96, puzzle: Exclusion NG 2) |  | 17 | 19.2 | apparent KD of MS2 coat protein [4]: 14.7 nM
11 | GUUAGUAUCUAGGAUAUCUAGUACAUAGUAUCUAGAGAAGGAGAUACAUGAGGAUCACCCAUGUUCUGUGUUCU [Exclusion 6 - 1:c] (puzzle: Exclusion 6) | 21.9 |  |  | 
12 | ACACAGCGAGGAUAUACAUGAGGAUCACCCAUGUGGCGGCCGUUACGGUAGGACUAGUGUAGAAGGCGCAUUGG [EX3 #34] (Eterna round: R97, puzzle: Exclusion 3) |  | 203 | 247 | 
13 | CUUUUGUGAGGAUAUCAGUUGUAAAUAAAUAAAAUUACUACUGAGAAGGCACAUGAGGAUCACCCAUGUUCCUC [salish99_ex3_r3_073] (puzzle: Exclusion 4) | 37.8 |  |  | 
14 | UACUAAAAGGAGGAUAUCGUAUCGGAGACGAUACGAGAAGGCUUAACAUGAGGAUCACCCAUGUUCUUCAAUAU [Mat - Exclusion 6 - Eli Mod - D96] (puzzle: Exclusion 6) | 14.8 |  |  | 
15 | GUCUUCAUGACAUGAGGAUCACCCAUGUGUUAUAUUUUUACUAAGGAUAUAUUUUUAAUGUUGAGAUAGAAGGUAGUUUCGGUC [JR_ExcNG3_Sub092] (Eterna round: R96, puzzle: Exclusion NG 3) |  |  |  | apparent KD of MS2 coat protein [4]: 79.1 nM
16 | AGUAGAUCUACGCUUGCGUGGAUCUGCAAUGCAAGUGUAACAUGAGGAUCACCCAUGUCCUCAUUUGCUCGUCUUAU [JL turnoff v2 99.03] (puzzle: Sensor v3, turn-off variant 2) | 275 |  |  | apparent KD of MS2 coat protein [1]: 46.8 nM; apparent KD of MS2 coat protein [3]: 48.8 nM
17 | CAGAGGAGACGGAGAUCCAACAUGAGGAUCACCCAUGUCUCAAAAGCUUUUUGCUUGUCUUAUCCUCCUCUCUUCAC [Mat - Sensor, turn-off var - Eli Mod - D59] (Eterna round: R97, puzzle: Sensor, turn-off variant 1) |  | 27.1 | 28.1 | 
18 | CUGAGCUGAGGAUAUACAUGAGGAUCACCCAUGUGAAGUAGCUUGCGUACAGGCAGAUGUAGAAGGCAGUUCGG [Mod of JL 1 - Jieux - Exclusion 3] (Eterna round: R97, puzzle: Exclusion 3) |  | 250 | 42.1 | 

Row | Sequence | apparent KD of MS2 coat protein [2] [nM] | apparent KD of MS2 coat protein (input ligand: FMN 200 uM) [nM] | apparent KD of MS2 coat protein (input ligand: none) [nM] | other results
19 | GCACGGAAAUUCCAUAAAACCACAUGAGGAUCACCCAUGUCUCAGGAUAUGGUCUGGAUUACAGGCCAGAAGGGAGAACCGUGC [Eli exng3 - 059] (Eterna round: R96, puzzle: Exclusion NG 3) |  | 15.1 | 11.8 | apparent KD of MS2 coat protein [4]: 10.2 nM
20 | UGGUCACAUGAGGAUCACCCAUGUCAGGAUAUCUACAUUGAAGCUGCGGCUUCAAUGUAGAGAAGGGACAUAAU [E1/7-B3] (Eterna round: R97, puzzle: Exclusion 1) |  | 314 | 272 | 
21 | CCUCAACAGGUCAGGAUAUACCCAACGGCGGACGGGUAGAAGGGACAUGAGGAUCACCCAUGUCCAGAGGUGAG [Eternabot (Original) Solution 11] (Eterna round: R97, puzzle: Brourd's mod of Exclusion 4) |  | 45.5 | 16.9 | 
22 | AUAAUGUCAGGAUAUCAGUCGACUAGCUGCGGCUAGUCGACUGAGAAGGGACAUGAGGAUCACCCAUGUGUUUC [E4/14-A3] (Eterna round: R97, puzzle: Exclusion 4) |  | 475 | 367 | 
23 | UUUUACAUCUAUGGGAGUGACAUGAGGAUCACCCAUGUAUGUCUUGUUUUUUGUUCGUCUAGGACUUUCUGAUCAGU [JR_SV3TOV1_Sub033] (puzzle: Sensor v3, turn-off variant 1) | 222 |  |  | apparent KD of MS2 coat protein [1]: 565 nM; apparent KD of MS2 coat protein [3]: 730 nM
24 | AUAUUGUGAGGAUAUGAACUUAGUAUCGAAAGAUAGUAAGUUCAGAAGGCACAUGAGGAUCACCCAUGUUUCUC [Long static hairpin v8] (Eterna round: R97, puzzle: Exclusion 4) |  | 399 | 69.8 | 
25 | AGUACUAUCACGAAAGUGAUAGUACAAAAAGCAAGUGAAACAUGAGGAUCACCCAUGUCCUCAUUUGCUCGUCUUAU [JL turnoff v2 99] (Eterna round: R96, puzzle: Sensor v2, turn-off variant 2) |  | 12.2 | 14.4 | apparent KD of MS2 coat protein [4]: 375 nM
26 | CUUUUGGCAGGAUAUGCUUUUUUUGACAUGAGGAUCACCCAUGUGAUGCAUUUUGGGUUUGCAGAAGGGCCUGAGU [JR_E5_Sub036] (puzzle: Exclusion 5) | 56.9 |  |  | 
27 | CCGGAUUAGGAGGAUAUAGGAGUCGAUAGACACCUAGAAGGCCUGACAUGAGGAUCACCCAUGUGUCCUACCGG [Mod of Eli 17 - Jieux - Exclusion 6] (Eterna round: R97, puzzle: Exclusion 6) |  | 48.6 | 22.9 | 
28 | CGGGUUCGUGUUAGGAUAUGCACGCACCCGUUGCGGCAGAAGGAACAUGAGGAUCACCCAUGUGAAUAAGAAAG [BmEX4 A.21] (Eterna round: R97, puzzle: Brourd's mod of Exclusion 4) |  | 17.1 | 15.5 | 
29 | AAAUAACCUCUAGGAUAUGUGUACGUAUAGUGCGCAGAAGGAGACAUGAGGAUCACCCAUGUACACACACAACAAACGACCACC (Eterna round: R96, puzzle: Exclusion NG 1) |  | 26.1 | 30.4 | apparent KD of MS2 coat protein [4]: 27.3 nM
30 | GCCGUUAAAGGAUAUACAUGAGGAUCACCCAUGUCGGUAUAAAAUUUACCGCCUCCCUGUAGAAGGUUAAGGCA [Xebiatorer] (puzzle: Exclusion 3) | 16.1 |  |  | 
31 | AGAAGACAUGAGGAUCACCCAUGUAAGGAUAUUGGAGGUUAGGGAUGCUGGAGUUGGACAAGAAGGUACAGGUG [JR_Exclu1_Sub091] (puzzle: Exclusion 1) | 46.9 |  |  | 
32 | GAAAAGUGAGGAUAUGGUAAAAGAAAAAGAAAAAAAAAACUCCAGAAGGCACAUGAGGAUCACCCAUGUAAAAG [salish99_ex4_r3_004] (puzzle: Exclusion 4) | 24.5 |  |  | apparent KD of MS2 coat protein [1]: 33.5 nM; apparent KD of MS2 coat protein [3]: 24 nM
33 | GAGAACGUAGGAUAUACAUGAGGAUCACCCAUGUGAGGAAGGAGUAGGAAGCGUGGAAGUAGAAGGACGGAGAG [JR_Exclu3_Sub073] (puzzle: Exclusion 3) | 40.6 |  |  | apparent KD of MS2 coat protein [1]: 57.6 nM; apparent KD of MS2 coat protein [3]: 24.5 nM
34 | UAAUAAAGUGUGAGGAUAUGCUGGUCCUUGGAUCAGCAGAAGGCACAUGAGGAUCACCCAUGUAAUAUAUAUAU [Mat - Exclusion 4 - JL Mod - D54] (puzzle: Brourd's mod of Exclusion 4) | 62.4 |  |  | 
35 | CAUGAUUGACGAGGAUAUUGUUCUACAUCACGACGAGAAGGCGUCUGUCACAUGAGGAUCACCCAUGUGAGACUGGUGAAUGAG [Ex NG1 #81] (Eterna round: R96, puzzle: Exclusion NG 1) |  | 36.4 | 20.4 | apparent KD of MS2 coat protein [4]: 17.1 nM
